Results as given in PMC8602292, “Acyl carrier protein promotes MukBEF action in Escherichia coli chromosome organization-segregation” (Nature Communications, 2021).

T1: MukB (wild type, MukB-His) (Escherichia coli, UniProt P22523 1-1486)
T1 construct: MukB, the SMC protein of Escherichia coli MukBEF; wild type; The end of the tag is read from the printed name 'MukB-His'; The same construct was used with co-purified AcpP or depleted of AcpP by an extended salt gradient on heparin; also called WT MukB; AcpP-depleted MukB; source: E. coli C3013I (NEB), pET vector, purified (TALON, HiTrap Heparin, Superdex 200); not shown: His tag, C-terminal, kept
T1 sequence (looked up): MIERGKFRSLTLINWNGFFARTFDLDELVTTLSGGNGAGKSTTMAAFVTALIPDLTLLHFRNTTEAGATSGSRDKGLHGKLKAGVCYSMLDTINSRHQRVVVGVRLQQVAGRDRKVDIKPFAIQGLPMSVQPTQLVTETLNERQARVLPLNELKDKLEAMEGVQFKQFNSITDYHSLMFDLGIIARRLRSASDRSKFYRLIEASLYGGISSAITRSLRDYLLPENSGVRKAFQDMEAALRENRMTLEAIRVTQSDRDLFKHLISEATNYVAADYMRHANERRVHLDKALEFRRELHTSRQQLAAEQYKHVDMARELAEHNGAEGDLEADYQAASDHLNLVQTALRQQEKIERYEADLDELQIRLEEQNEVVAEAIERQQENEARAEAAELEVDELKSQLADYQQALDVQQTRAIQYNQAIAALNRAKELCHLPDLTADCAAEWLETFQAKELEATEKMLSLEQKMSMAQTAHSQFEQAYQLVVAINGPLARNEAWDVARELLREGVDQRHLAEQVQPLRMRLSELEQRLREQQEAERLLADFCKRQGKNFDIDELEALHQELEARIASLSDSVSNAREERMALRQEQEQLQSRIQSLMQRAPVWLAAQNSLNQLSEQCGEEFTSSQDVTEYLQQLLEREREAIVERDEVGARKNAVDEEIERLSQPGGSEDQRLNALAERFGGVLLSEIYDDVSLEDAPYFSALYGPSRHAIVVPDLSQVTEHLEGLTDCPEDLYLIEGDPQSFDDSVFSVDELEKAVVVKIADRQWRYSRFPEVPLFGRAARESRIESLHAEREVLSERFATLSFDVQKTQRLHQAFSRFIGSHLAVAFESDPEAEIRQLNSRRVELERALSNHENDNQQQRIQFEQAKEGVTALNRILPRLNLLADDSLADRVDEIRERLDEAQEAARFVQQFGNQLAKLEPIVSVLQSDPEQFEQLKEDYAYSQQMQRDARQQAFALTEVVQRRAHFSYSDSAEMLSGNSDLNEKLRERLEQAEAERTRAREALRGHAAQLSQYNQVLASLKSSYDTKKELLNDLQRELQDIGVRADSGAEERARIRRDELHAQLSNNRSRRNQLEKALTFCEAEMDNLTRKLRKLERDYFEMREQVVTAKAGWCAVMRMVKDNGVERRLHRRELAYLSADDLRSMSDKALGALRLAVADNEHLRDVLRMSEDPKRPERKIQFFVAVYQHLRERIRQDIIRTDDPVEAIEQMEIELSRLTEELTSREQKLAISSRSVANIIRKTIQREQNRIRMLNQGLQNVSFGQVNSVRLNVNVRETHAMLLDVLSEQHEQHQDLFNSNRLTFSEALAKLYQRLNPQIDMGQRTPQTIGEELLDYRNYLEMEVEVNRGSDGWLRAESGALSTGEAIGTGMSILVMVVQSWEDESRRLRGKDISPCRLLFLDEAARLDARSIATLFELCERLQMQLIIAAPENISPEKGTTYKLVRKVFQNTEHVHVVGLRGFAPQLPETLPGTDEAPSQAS


Molecular target: T1, MukB (wild type, MukB-His)
Experiment: native MS; mixtures of MukB, MukE, MukF and AcpP at various concentrations of MukB; 200 mM ammonium acetate pH 8.0
Settings: both partners purified

| binding result | Binder |
| --- | --- |
| binds | MukF (His-MukF) (natural protein, Escherichia coli, UniProt P60293 1-440, looked up, MukF, the kleisin of Escherichia coli MukBEF; The end of the tag is read from the printed name 'His-MukF'; also called kleisin MukF; source: E. coli C3013I (NEB), pET vector, purified (TALON, HiTrap DEAE FF, Superdex 200)) MSEFSQTVPELVAWARKNDFSISLPVDRLSFLLAVATLNGERLDGEMSEGELVDAFRHVSDAFEQTSETIGVRANNAINDMVRQRLLNRFTSEQAEGNAIYRLTPLGIGITDYYIRQREFSTLRLSMQLSIVAGELKRAADAAEEGGDEFHWHRNVYAPLKYSVAEIFDSIDLTQRLMDEQQQQVKDDIAQLLNKDWRAAISSCELLLSETSGTLRELQDTLEAAGDKLQANLLRIQDATMTHDDLHFVDRLVFDLQSKLDRIISWGQQSIDLWIGYDRHVHKFIRTAIDMDKNRVFAQRLRQSVQTYFDEPWALTYANADRLLDMRDEEMALRDEEVTGELPEDLEYEEFNEIREQLAAIIEEQLAVYKTRQVPLDLGLVVREYLSQYPRARHFDVARIVIDQAVRLGVAQADFTGLPAKWQPINDYGAKVQAHVIDKY |
| binds | MukE (MukE-His) (natural protein, Escherichia coli, UniProt P22524 1-234, looked up, MukE, the KITE protein of Escherichia coli MukBEF; The end of the tag is read from the printed name 'MukE-His'; also called KITE protein MukE; source: E. coli C3013I (NEB), pET vector, purified (TALON, HiTrap DEAE FF, Superdex 200)) MSSTNIEQVMPVKLAQALANPLFPALDSALRSGRHIGLDELDNHAFLMDFQEYLEEFYARYNVELIRAPEGFFYLRPRSTTLIPRSVLSELDMMVGKILCYLYLSPERLANEGIFTQQELYDELLTLADEAKLLKLVNNRSTGSDVDRQKLQEKVRSSLNRLRRLGMVWFMGHDSSKFRITESVFRFGADVRAGDDPREAQRRLIRDGEAMPIENHLQLNDETEENQPDSGEEE |
